# Test results published in the supplement of paper PMC12042874.
# ± gives the uncertainty stated by the source.
# Assay: amyloid nucleation score (Sup35N fusion, yeast selection) (log enrichment); library NNK1; higher = more nucleation; inactive = no reads after selection
# In short: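 Nucleation score: DiMSum log enrichment of output over input reads, centred on the mode score of non-aggregating sequences. Only sequences with at least 100 input reads were kept. Reads came from Illumina sequencing of plasmid inserts before and after 7 days of growth at 30°C without adenine and uracil, in psi-negative yeast expressing Sup35N fused to peptides of 20 random codons after 24 hours of induction with 100 μM copper sulfate.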
row,Substance,amyloid nucleation score
1,NVNCNRYSWMGDHSCEGRQP,-0.128 ± 0.57
2,YVLRSAMACLCDCVCESCGG,2.71 ± 0.12
3,SDPYDPRIVVVRIKLLLVME,-0.153 ± 1.4
4,YNREWYYIWLLREFDVRKHS,1.43 ± 0.53
5,DAMFLL,-0.358 ± 0.31
6,TFTDS,0.176 ± 0.75
7,RNLVWDMNAFKHVFCEDIHY,0.396 ± 0.69
8,SSDFY,-1.46 ± 1.3
9,SACALSYYCGWISRCSYLCP,-0.158 ± 0.63
10,AGYCVCLYMLEYSGTFGYSH,1.63 ± 0.19
11,ALVALRAY,0.364 ± 1.2
12,YWPPGFAVS,1.01 ± 0.81
13,CIGNCYGWLSDLSWWSCPSS,0.676 ± 0.3
14,LYESELLNNHQETSPQSSEG,-0.349 ± 0.56
15,AMKLVPLNLYFKDNKNQSSC,-0.033 ± 0.31
16,WLSSLARIWSRQMREYNS,0.64 ± 0.44
17,SVCGSLSC,1.16 ± 0.76
18,NSVHWTASGSDSIPTAIESR,1.58 ± 0.2
19,LSYDEYPGMNASAAIQGLVV,-0.556 ± 1.4
20,RRNVM,0.519 ± 0.25
21,NKDYMVVLTDFS,-0.326 ± 0.2
22,GKTRK,-0.782 ± 1.7
23,CNRLIHDMHVCLTNE,inactive
24,TMFLVSRDFRGIVLYWITTF,-0.364 ± 0.78
25,FRFVG,-1.53 ± 0.83

row,Substance,amyloid nucleation score
1,SLWIKQLRERVANFLAGFEG,inactive
2,SVVRNESNSLVH,0.065 ± 0.28
3,GGLCTLVVAVGDSWIDRR,-0.34 ± 0.43
4,FKSASVRRI,-0.822 ± 0.84
5,VIKDFNDNYTGFRHYSKILI,-0.634 ± 1.7
6,FVGLVDN,0.051 ± 0.49
7,AVVDRDMHYASTCSGGVGCH,-0.186 ± 0.96
8,SCVRCQLS,7.454 ± 0.05
9,HRAWAQVFFPELARSLVRSQ,0.216 ± 0.6
10,RFGWISMYSCSRWHCMRNLY,1.13 ± 0.19
11,LFLLEINVSSRIWPSFPKSY,0.257 ± 0.42
12,SELFWMVGMGSLSSRYNSPF,2.37 ± 0.087
13,TATGGASETERTAVTMY,-0.609 ± 1.9
14,NKIGRGVVCSRLWTCCSCFM,8.554 ± 0.079
15,LGWDDVVY,0.314 ± 0.85
16,DCESVWSIKGNKPMLFDRIL,-1.45 ± 1.7
17,LSQMSRCNPACAVVPASEMA,0.376 ± 1.1
18,SWGLGSFLY,0.06 ± 0.36
19,WCYVYRSRRVSMTSWVLRTQ,0.19 ± 0.26
20,VVIVN,0.439 ± 0.47
21,SSNWFPR,-0.07 ± 0.59
22,TFQLKMWEHVVLPDVSMAST,0.669 ± 0.48
23,HRRFLAPME,0.385 ± 0.3
24,LCRMFRIVAVGYMDQRCRT,0.479 ± 0.49
25,SRKVLTPVSPVSVRAARVGH,-0.979 ± 1.9

row,Substance,amyloid nucleation score
1,QTDLLYSIYRSKDNSGLNLV,0.75 ± 0.56
2,RFCRHEMVFVLDLNTYISVP,0.887 ± 0.26
3,FSMVAPTVILLKYYN,-0.111 ± 0.21
4,DYFIKWFIYRPLTS,-0.504 ± 0.6
5,WLGYMDMDNGARQNQYSETG,-0.942 ± 1.4
6,SWSSKRNVWEHIVGESYEYF,inactive
7,FSYRWGLVFSFRDVKLL,2.27 ± 0.11
8,FLYSSLFDKVNCCNRPPVSS,-0.014 ± 0.7
9,SACGVIRRLSAGYNCFYVK,0.229 ± 0.51
10,TYRVLGWMYTCW,-0.809 ± 1.1
11,GVISAGYFAGYETKLLLKGD,0.983 ± 0.97
12,YGFLNPTSSR,0.632 ± 0.5
13,LRSTLPADRRGLICFSHI,0.528 ± 1
14,GIHSLFMVAIYFAYWLRKWV,-0.877 ± 1.6
15,WSPEMNVVKFTLFYNRSSRF,7.13 ± 0.078
16,DLFYYLRRLITRTWFM,1.05 ± 0.27
17,IYINVP,0.764 ± 0.38
18,AQQGIYCRCTVCGQ,1.41 ± 0.28
19,GESRGS,0.473 ± 0.43
20,QYSCN,1.72 ± 0.46
21,NSHLVFMGMLFLRISDDFVR,-0.083 ± 1.4
22,YMKLKRVDMSVYSCCLVFGH,-0.648 ± 0.73
23,SRIFRKLHYSTWIQMRGLCP,-0.431 ± 0.28
24,DLVTSYWKIEGPILRSGGNM,-0.563 ± 0.49
25,NWVVFRMRHRLQTSFWGCGE,0.123 ± 0.57

row,Substance,amyloid nucleation score
1,ACVMRIDAFFMTISVRLLRL,1.79 ± 0.3
2,DIRIPMHLSIDLQVVLSLRY,0.172 ± 0.63
3,YCTLRESKPPMDGSM,-0.898 ± 1.7
4,FLMDNDKIHYGYISSVCTSY,inactive
5,GHHLSVWRSNSCSCVWSITD,-0.184 ± 0.4
6,SNALVFNFSRHAFVNIVFVY,4.04 ± 0.13
7,ILDVKAPR,0.446 ± 0.64
8,WLDAVGMAAG,-0.989 ± 2.7
9,CDIVNKSTGGLSTRALKIVY,0.051 ± 0.69
10,ISFDSLWDCSYS,-0.232 ± 0.23
11,MGLFFERSVKCSLF,-0.946 ± 1.1
12,TWSYGLASDEVGPDAVVIVY,0.495 ± 1
13,FSASLNDLGLQKRVNVSVD,-0.413 ± 0.49
14,VMRVAYNDT,0.416 ± 0.36
15,VYVVGLFQLVSITFLCRITV,0.153 ± 0.22
16,GGRSS,-0.058 ± 0.58
17,FVHVYLERDRPNLTPFI,0.084 ± 0.33
18,FGLKYRSDGVPCPDYLARKY,0.702 ± 0.51
19,QKWNMFVSSWVYDRRRTRGC,0.301 ± 1.1
20,CECRRANVADPFRVSCWAKF,0.156 ± 1.2
21,RTPVLSCWWFEYMELRGQST,-0.412 ± 1.7
22,TCRFTHLLFWYFK,0.246 ± 0.97
23,KLLPYMYCHYN,1.27 ± 0.39
24,RFLRAPGLCSVCSCE,-0.729 ± 0.85
25,FFGVLNIPNFCVSMF,0.645 ± 0.69

row,Substance,amyloid nucleation score
1,VYLKKSLFL,-0.484 ± 0.9
2,THSIF,inactive
3,FAQFSAWRTTNGRYKHHFTL,-0.256 ± 0.52
4,YSMLQFWDRAAMSV,-0.294 ± 1.5
5,GKRLQ,-0.249 ± 1.2
6,WSKTSDDSVWWTWTDGIMFV,1.92 ± 0.46
7,DATCLESLALSYKG,-0.573 ± 0.41
8,VSLRAAWNLC,0.606 ± 0.71
9,RSGNVAQEMSMHPTWYEWS,0.954 ± 0.31
10,LHIVMLVLMASMEQTVTS,-1.11 ± 2.4
11,KVIRLIFRGY,0.871 ± 0.64
12,INMLTWGWELILSGSSVYED,-0.151 ± 0.41
13,NGADTSSQAF,-0.182 ± 1.3
14,CVCLKDPANLSAIGCRGESL,-1.6 ± 2.7
15,RLFRTLGSDRGLFKEYF,0.734 ± 0.84
16,MCYVRMTFGTRDCHERVSLS,inactive
17,RLLDFMFVGVLLACFGVQRW,1.39 ± 0.29
18,TCVGDCGCIGWSTIFFSDYS,1.43 ± 0.72
19,TQSTLGSMTIASDYCTTE,1.42 ± 0.34
20,VSETAFLNTNKWGPKCLMWN,-1.42 ± 1
21,VHSVLKWLRWDSIPCIVLIR,-0.487 ± 0.32
22,QTLDRNNARSSDNGCSVGGA,-0.476 ± 1.9
23,TYGEYRTYISYH,0.389 ± 0.43
24,LVNIHVIQKAFVGTVASSKV,5.07 ± 0.067
25,GHTVVSSWALNFEYGFQLGY,0.05 ± 0.5

row,Substance,amyloid nucleation score
1,YDRAWMLRPTLLWLTQTVVR,2.21 ± 0.13
2,SKFSISRTHNSHLSYSGLGG,0.056 ± 0.5
3,VSYYCAQALVLRIPEEWATE,-0.168 ± 1.3
4,VPMLDLGKVYNRSACP,inactive
5,LITLAFVVSCVSYSRGSKRW,1.31 ± 0.23
6,PARATMSSLRPTSNLPFFPA,-0.459 ± 1.1
7,KYVIKCTSWVGAMTHSSSKA,0.333 ± 0.24
8,QVRCAFVIRRSV,0.143 ± 0.64
9,ASFQFSSCMCSLYAVFSRLL,0.759 ± 0.44
10,VRRGTVFAVGTCYIGRWFAV,1.21 ± 0.97
11,SIPRGFLLVLLVDNPTIRLQ,-0.358 ± 0.32
12,GIKFNWENLARVLESNVFF,1.53 ± 0.46
13,GVRETHLPSMLRRTALRFTF,0.026 ± 0.36
14,INSAHYELN,-1.51 ± 2.4
15,RRSQGAYLLNDGVRGIL,-0.057 ± 0.28
16,FDSVESRTAPTRMILLRTLF,inactive
17,GCGRGMLLGFAPWITCPWMS,0.971 ± 0.49
18,WLTKSEN,-0.151 ± 0.27
19,SFSGYMLDCGEHTQMYSASI,0.185 ± 0.35
20,YRGWVVQGIHLKFSCFAELR,0.333 ± 0.97
21,SFFDLSEA,0.918 ± 1.1
22,NSIVWSMC,0.409 ± 0.42
23,GYSCRVIWNTNWTALFT,inactive
24,SCMTLLRFKRMEDLK,2.45 ± 0.19
25,WHELRMCIVMDFLLMLQKMI,1.79 ± 0.44

row,Substance,amyloid nucleation score
1,RGYLMHMTVAKILSVVKKRA,-2.16 ± 2.7
2,LWGDYPFRDVPRTMVDQRRN,0.079 ± 0.98
3,GIRPPGKCMGWYLHMKFQSS,-0.391 ± 0.59
4,NFFDLLYFL,0.175 ± 0.82
5,HVMRSSGRHGRRRLT,-0.631 ± 1.1
6,PYRYKSGWATTQSLRREQLD,-0.743 ± 1.3
7,GVGIFAIYWFTMPHVRPRVI,-1.13 ± 1
8,ACNTSSIYALTFVCHLSVGV,4.67 ± 0.057
9,WLVLTMS,0.086 ± 0.36
10,RISLVPRDASPESSTKSSSI,inactive
11,MLGLWIVARLVLSVDSQRVE,inactive
12,NSRGVSSKYCFGKRIPDGGL,0.117 ± 0.3
13,VSLMCVALYKQISTRI,0.102 ± 0.51
14,FRRIFSWACPV,0.352 ± 0.58
15,VEPLCGTRFACRLNAFKTTG,-0.097 ± 0.39
16,YLERIGATYMGG,0.601 ± 0.4
17,ERLFELKCPNFCAELGSDS,0.24 ± 0.41
18,FDNAPMSDLG,0.405 ± 0.72
19,FLNVARQV,0.101 ± 1.4
20,HALMTARAFTCPWRMVVKFQ,0.897 ± 0.61
21,VRMVQEMFRRRTLEELAMGA,0.447 ± 0.68
22,TRLLSYFDTRRELNCKVYYN,-0.053 ± 0.66
23,HEPFDSDHTVARRETCLFGR,-0.928 ± 0.52
24,VQIWAAELMTDRRK,0.436 ± 1.2
